Experimental data: article PMC5586252, “PP2A-B′ holoenzyme substrate recognition, regulation and role in cytokinesis” (Cell Discovery, 2017)

Key:
B′γ1 regulatory subunit = B′γ1 regulatory subunit (UniProt Q13362-2 1-449); experiment: ITC; 1 mM peptide titrated to 20–50 μM B′γ1; 20 mM HEPES pH 7.5, 200 mM NaCl; VP-ITC; settings: both partners purified
B′ε regulatory subunit = molecular target: T1, B′ε regulatory subunit (UniProt Q16537 1-467); experiment: pull-down; about 10 μg GST-tagged B′-binding motif or GST-pCyk4 on glutathione (GS4B) resin; 10 μg holoenzyme, B′ε or PR70 added; 25 mM Tris pH 8.0, 150 mM NaCl, 3 mM DTT; SDS-PAGE, Coomassie; settings: both partners purified
T1 construct: PP2A regulatory subunit B′ε, full-length; prey in a GST pull-down, so probably with the GST tag cleaved by TEV; source: E. coli DH5α, purified (GS4B, anion exchange, gel filtration)
T1 sequence (Q16537 whole entry): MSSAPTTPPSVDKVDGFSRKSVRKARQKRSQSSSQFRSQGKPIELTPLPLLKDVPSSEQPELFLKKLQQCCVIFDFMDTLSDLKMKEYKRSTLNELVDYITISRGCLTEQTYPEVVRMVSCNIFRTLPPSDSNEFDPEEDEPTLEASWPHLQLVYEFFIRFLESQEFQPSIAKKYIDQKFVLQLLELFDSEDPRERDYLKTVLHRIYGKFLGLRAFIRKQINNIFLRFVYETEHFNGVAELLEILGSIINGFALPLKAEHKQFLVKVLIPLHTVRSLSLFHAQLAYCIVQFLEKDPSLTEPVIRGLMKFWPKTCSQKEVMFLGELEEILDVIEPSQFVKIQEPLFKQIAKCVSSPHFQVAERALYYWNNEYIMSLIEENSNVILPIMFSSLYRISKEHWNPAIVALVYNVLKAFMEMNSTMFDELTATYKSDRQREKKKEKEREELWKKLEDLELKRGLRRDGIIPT

What does the source list for LSTIDEEGS [Cyk4 S149E peptide (synthetic, phosphomimetic)]?
Kd (B′γ1 regulatory subunit): 1590 nM; fold stronger binding than the native Cyk4 peptide (B′γ1 regulatory subunit): 15 fold

B1: GST-pCyk4 (1–177), Plk1-phosphorylated (domain or fragment, human, UniProt Q9H0H5 1-177, looked up)
chain: MDTMMLNVRNLFEQLVRRVEILSEGNEVQFIQLAKDFEDFRKKWQRTDHELGKYKDLLMKAETERSALDVKLKHARNQVDVEIKRRQRAEADCEKLERQIQLIREMLMCDTSGSIQLSEEQKSALAFLNRGQPSSSNAGNKRLSTIDESGSILSDISFDKTDESLDWDSSLVKTFKL
modifications: phosphorylated by Plk1: mono- to pentakis-phosphorylated forms; sites of the tetrakis form S149, S157, S164 and S170
notes: also called GST-Cyk4; source: phosphorylated by Plk1; not shown: GST, N-terminal, kept
Does B1 bind (B′ε regulatory subunit)?
Result: binds
